Data published in PMC11482926 (bioRxiv, 2024).

Columns and labels:
NEDD8 = NEDD8 (UniProt Q15843 1-76); assay: NMR titration
ubiquitin = ubiquitin (UniProt P0CG48 1-76); assay: NMR titration

- Kd (NEDD8): 671 ± 153 µM
- Kd (ubiquitin): 159 ± 9.5 µM
Binder: AAEDQVPCEKCGSLVPVWDMPEHMDYHFALELQKS (domain or fragment) [UBZ domain of Pol η (amino acids 628–662)]
